Experimental data as given in patent publication US20220089723A1 (UNIVERSITY HEALTH NETWORK, published 2022).

Target: T1, Human LILRB3 (human, UniProt O75022 24-631)
T1 construct: whole, on cells; Endogenous receptor on primary human PBMCs and whole blood cells, not a recombinant construct; also called CD85A; ILT5
Assay: flow cytometry; human PBMCs and fresh whole blood stained with 3A3 and gated on cell subsets
Description: LILRB3 surface expression was measured on various hematopoietic subsets in the form of two-dimensional flow cytometry (FCM) representations called quantile contour plots (probability plots). Peripheral blood mononuclear cells (PBMCs) from a healthy human donor were stained with the LILRB3 3A3 antibody as well as antibodies specific for the indicated cell subset. FIG. 1A plots depict LILRB3 expression by gated CD3+CD4+T cells, CD3+CD8+ T cells or CD11b+ monocytes. In FIG. 1B, fresh whole blood from a healthy human donor was stained as in FIG. 1A. Plots depict LILRB3 expression by gated CD3+CD4+ T cells, CD3+CD8+ T cells, CD11b+ monocytes or CD11b+ granulocytes. Percentages of gated cells and of LILRB3+ cells within the gated population are depicted inside the plots (first and second numbers, respectively). […] Specificity of the LILRB3 staining was determined by staining all of the above cell subsets with an IgG1 isotype control antibody. Data are representative of several independent experiments utilizing different human blood samples.

T1 sequence (O75022 24-631): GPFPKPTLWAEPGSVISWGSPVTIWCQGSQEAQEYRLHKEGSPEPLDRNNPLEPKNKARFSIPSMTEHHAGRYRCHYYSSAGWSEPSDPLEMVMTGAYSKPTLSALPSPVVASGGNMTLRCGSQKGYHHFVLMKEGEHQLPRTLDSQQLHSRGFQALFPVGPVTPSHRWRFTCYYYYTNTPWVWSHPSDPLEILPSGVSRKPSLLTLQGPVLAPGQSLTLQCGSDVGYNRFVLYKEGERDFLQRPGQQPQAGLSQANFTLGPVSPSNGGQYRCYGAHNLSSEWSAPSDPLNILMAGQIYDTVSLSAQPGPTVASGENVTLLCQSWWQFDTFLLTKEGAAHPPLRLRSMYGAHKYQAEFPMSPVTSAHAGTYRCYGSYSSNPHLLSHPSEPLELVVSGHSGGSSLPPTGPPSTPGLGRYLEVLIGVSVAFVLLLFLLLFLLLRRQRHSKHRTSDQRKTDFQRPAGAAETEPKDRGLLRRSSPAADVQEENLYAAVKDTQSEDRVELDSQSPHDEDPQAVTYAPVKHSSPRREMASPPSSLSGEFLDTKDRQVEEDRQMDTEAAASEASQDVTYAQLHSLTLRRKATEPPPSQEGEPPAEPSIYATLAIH

B1: LILRB3 3A3 antibody (antibody, V domains shown)
VH: QVQLQQSRTELMKPGASVKLSCKATGYTFTGYWIEWVKQRPGHGLEWIGEILPGSTNINYNERFKGKATITADTSSNTAYMQLSSLTTEDSAIYYCARWASVVVGDYWGQGATLTVSS
VL: QIVLTQSPAIMSASLGERVTMTCTASSSVSSSYLHWYQQKPGSSPKLWIYSTSNLASGVPARFSGSGSGTSYSLTISSMEAEDAATYYCHQYHRSPPTFGGGTKLEIKR
notes: the entries also seem to hold an N-terminal leader and part of the constant region
Question: Does B1 bind?
Answer: Result: binds
